T1: SORT1 on SORT1 overexpressing cells (Homo sapiens (Human), UniProt Q99523 78-831)
T1 construct: also called Sortilin overexpressing cells; SORT overexpressing cells
T1 sequence: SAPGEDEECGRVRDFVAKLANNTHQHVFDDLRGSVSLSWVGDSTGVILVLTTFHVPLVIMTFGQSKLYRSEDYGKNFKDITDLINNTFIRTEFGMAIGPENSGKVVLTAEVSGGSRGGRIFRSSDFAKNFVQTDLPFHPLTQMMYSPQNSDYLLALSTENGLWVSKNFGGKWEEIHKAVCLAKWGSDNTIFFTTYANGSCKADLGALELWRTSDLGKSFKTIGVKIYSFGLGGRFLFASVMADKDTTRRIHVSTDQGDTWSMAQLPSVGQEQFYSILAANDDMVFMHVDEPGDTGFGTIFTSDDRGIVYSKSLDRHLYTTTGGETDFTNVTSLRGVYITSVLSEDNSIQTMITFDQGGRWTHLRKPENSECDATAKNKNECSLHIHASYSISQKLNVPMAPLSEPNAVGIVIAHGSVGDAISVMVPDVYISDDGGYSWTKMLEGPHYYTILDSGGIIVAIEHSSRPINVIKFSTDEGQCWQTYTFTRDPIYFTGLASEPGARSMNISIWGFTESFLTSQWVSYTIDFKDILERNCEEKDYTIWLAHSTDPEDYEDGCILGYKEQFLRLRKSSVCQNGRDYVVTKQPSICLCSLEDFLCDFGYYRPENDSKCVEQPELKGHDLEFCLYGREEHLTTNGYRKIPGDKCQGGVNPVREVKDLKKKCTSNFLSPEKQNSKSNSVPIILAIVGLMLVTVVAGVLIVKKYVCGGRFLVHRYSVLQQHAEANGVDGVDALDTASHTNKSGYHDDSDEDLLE

T2: recombinant 6xHistidine tagged human SORT1 (human, UniProt Q99523 78-755)
T2 construct: Captured on the chip by an anti-His mAb; also called SORT1-6xHis; Sortilin-6xHis
T2 sequence: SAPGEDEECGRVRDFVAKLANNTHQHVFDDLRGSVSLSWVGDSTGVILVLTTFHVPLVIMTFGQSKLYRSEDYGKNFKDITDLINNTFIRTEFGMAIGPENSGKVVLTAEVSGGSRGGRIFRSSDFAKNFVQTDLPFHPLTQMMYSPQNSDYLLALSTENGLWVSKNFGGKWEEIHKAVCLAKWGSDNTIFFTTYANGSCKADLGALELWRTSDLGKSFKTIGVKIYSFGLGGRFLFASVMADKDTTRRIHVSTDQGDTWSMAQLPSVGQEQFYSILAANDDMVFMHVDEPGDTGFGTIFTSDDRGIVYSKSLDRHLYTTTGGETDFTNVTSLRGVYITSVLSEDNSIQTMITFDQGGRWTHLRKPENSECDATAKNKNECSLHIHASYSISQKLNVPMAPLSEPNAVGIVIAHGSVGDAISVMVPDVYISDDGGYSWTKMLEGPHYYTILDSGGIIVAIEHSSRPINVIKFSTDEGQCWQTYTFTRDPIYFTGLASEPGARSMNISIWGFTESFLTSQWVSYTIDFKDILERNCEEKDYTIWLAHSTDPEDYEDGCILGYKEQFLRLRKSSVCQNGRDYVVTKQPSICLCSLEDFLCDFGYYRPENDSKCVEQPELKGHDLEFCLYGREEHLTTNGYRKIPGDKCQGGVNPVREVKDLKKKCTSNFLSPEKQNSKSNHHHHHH


Key:
[1] = target: T1, SORT1 on SORT1 overexpressing cells; assay: binding/uptake assay on SORT1 overexpressing cells; intracellular Naglu activity against fusion protein concentration; cellular uptake assay on SORT1 overexpressing cells, read as intracellular Naglu activity
Method: A cell line was established overexpressing SORT1, using standard technologies known in the art. […] After a specified period of time, the supernatant was removed and the cells were washed repeatedly. Then, cells were lysed and each sample was assayed for Naglu enzyme activity.

[2] = target: T2, recombinant 6xHistidine tagged human …; assay: SPR; SORT1-6xHis captured by anti-His mAb, Naglu-SPP as analyte 0-20 nM
Method: (§1) Briefly, anti-His mAb (capturing molecule) was diluted in immobilization buffer and bound on the dextran surface of a SPR sensor chip housed in a microfluidic system. […] As the solution moved over the SPR sensor chip, the analyte bound to the capture complex and an increase in SPR signal (expressed in response units, RU) was observed. Finally, a solution without analyte was injected into the microfluidic device to detach bound […] from the capture complex, resulting in a decrease in SPR signal. The detailed experimental conditions are described in Table 6 below.

[3] = target: T2, recombinant 6xHistidine tagged human …; assay: SPR; SORT1-6xHis captured on anti-His mAb, Naglu-SPP 0.625-20 nM as analyte; value from the fit table under the sensorgrams
Method: as §1

[4] = target: T1, SORT1 on SORT1 overexpressing cells; assay: cell-based or functional assay

Binder | Kd [1] | Kd [2] | koff [2] | kon [2] | Kd [3] | koff [3] | kon [3] | Kd (cellular uptake: Naglu activity in lysates of SORT1 overexpressing cells) [A] [4]
Naglu-SPP fusion protein (enzyme) DEAREAAAVRALVARLLGPGPAADFSVSVERALAAKPGLDTYSLGGGGAARVRVRGSTGVAAAAGLHRYLRDFCGCHVAWSGSQLRLPRPLPAVPGELTEATPNRYRYYQNVCTQSYSFVWWDWARWEREIDWMALNGINLALAWSGQEAIWQRVYLALGLTQAEINEFFTGPAFLAWGRMGNLHTWDGPLPPSWHIKQLYLQHRVLDQMRSFGMTPVLPAFAGHVPEAVTRVFPQVNVTKMGSWGHFNCSYSCSFLLAPEDPIFPIIGSLFLRELIKEFGTDHIYGADTFNEMQPPSSEPSYLAAATTAVYEAMTAVDTEAVWLLQGWLFQHQPQFWGPAQIRAVLGAVPRGRLLVLDLFAESQPVYTRTASFQGQPFIWCMLHNFGGNHGLFGALEAVNGGPEAARLFPNSTMVGTGMAPEGISQNEVVYSLMAELGWRKDPVPDLAAWVTSFAARRYGVSHPDAGAAWRLLLRSVYNCSGEACRGHNRSPLVRRPSLQMNTSIWYNRSDVFEAWRLLLTSAPSLATSPAFRYDLLDLTRQAVQELVSLYYEEARSAYLSKELASLLRAGGVLAYELLPALDEVLASDSRFLLGSWLEQARAAAVSEAEADFYEQNSRYQLTLWGPEGNILDYANKQLAGLVANYYTPRWRLFLEALVDSVAQGIPFQQHQFDKNVFQLEQAFVLSKQRYPSQPRGDTVDLAKKIFLKYYPRWVAGSWGAPGGGGGAAAAAGGGGGGAPGGGGGAAAAAGGGGGGAPGGGGGAAAAAGGGGGGAPQDRLDAPPPPAAPLPRWSGPIGVSWGLRAAAAGGAFPRGGRWRR | 155 nM | ~0.66 nM | ~0.00071 s⁻¹ | ~1.1e+06 M⁻¹ s⁻¹ | 0.663 nM | 0.000708 s⁻¹ | 1.07e+06 M⁻¹ s⁻¹ | 155 nM
Naglu-tPRGN fusion protein (enzyme, also called Naglu-tPGRN) DEAREAAAVRALVARLLGPGPAADFSVSVERALAAKPGLDTYSLGGGGAARVRVRGSTGVAAAAGLHRYLRDFCGCHVAWSGSQLRLPRPLPAVPGELTEATPNRYRYYQNVCTQSYSFVWWDWARWEREIDWMALNGINLALAWSGQEAIWQRVYLALGLTQAEINEFFTGPAFLAWGRMGNLHTWDGPLPPSWHIKQLYLQHRVLDQMRSFGMTPVLPAFAGHVPEAVTRVFPQVNVTKMGSWGHFNCSYSCSFLLAPEDPIFPIIGSLFLRELIKEFGTDHIYGADTFNEMQPPSSEPSYLAAATTAVYEAMTAVDTEAVWLLQGWLFQHQPQFWGPAQIRAVLGAVPRGRLLVLDLFAESQPVYTRTASFQGQPFIWCMLHNFGGNHGLFGALEAVNGGPEAARLFPNSTMVGTGMAPEGISQNEVVYSLMAELGWRKDPVPDLAAWVTSFAARRYGVSHPDAGAAWRLLLRSVYNCSGEACRGHNRSPLVRRPSLQMNTSIWYNRSDVFEAWRLLLTSAPSLATSPAFRYDLLDLTRQAVQELVSLYYEEARSAYLSKELASLLRAGGVLAYELLPALDEVLASDSRFLLGSWLEQARAAAVSEAEADFYEQNSRYQLTLWGPEGNILDYANKQLAGLVANYYTPRWRLFLEALVDSVAQGIPFQQHQFDKNVFQLEQAFVLSKQRYPSQPRGDTVDLAKKIFLKYYPRWVAGSWGAPGGGGGAAAAAGGGGGGAPGGGGGAAAAAGGGGGGAPGGGGGAAAAAGGGGGGAPTKCLRREAPRWDAPLRDPALRQLL | 392 nM | – | – | – | – | – | – | –

Reference: US20170246263A1 (SHIRE HUMAN GENETIC THERAPIES, published 2017)
